Source: patent US20140065154A1, “TLR3 BINDING AGENTS” (INNATE PHARMA, priority 2011, published 2014)
Where two headings read alike, the source gives them in different places.

Assays:
COPD mouse model = assay: In vivo efficacy model of COPD (Elastin and LPS); set-up: species or system mice; conditions: drug combination study
Experimental: Three groups of 10 male mice were treated as follows: • 1 group of 10 mice with a vehicle. • 1 group of 10 mice with the anti-mouse TLR328G7 antibody administration (i.p., 500 μg/per mouse) on days 0, 3, 7, 10, 14, 17, 21 and 24. • 1 group of 10 mice with the positive control roflumilast (approved as […]; antagonist of PDE-4) (oral, 15 mg/kg, five times per week). All mice were treated at days 0, 7, 14 and 21 with Elastin and LPS (i.n.), to induce COPD. At day 28 mice were sacrificed for analysis. The cellular infiltrates into airways was measured by analysis of bronchoalveolar lavage (BAL) fluid by differential cell count on day 28. The oxygenation of venous blood was measured by gasometry on day 28. The level inflammatory mediators in BALF, through the analysis for protein levels of TNF-alpha, IL-6, IL-17A and IP-10 was performed by multiplex assay. […] Statistical analysis was performed on all data utilizing a Student's t test: '*' p<0.05; '**' p<0.005; '***'p<0.0005. […] All mice were treated with Elastin and LPS (i.n.), to induce COPD and sacrified as in study A. The cellular infiltrates into airways was measured by analysis of bronchoalveolar lavage (BAL) fluid by differential cell count as in Study A.

[1] = cited from earlier work
[2] = molecular target: T1, wild type human TLR3 expressed in 293T cells (human, UniProt O15455 24-904); assay: cell-based or functional assay
[3] = molecular target: T1, wild type human TLR3 expressed in 293T …; assay: cell-based or functional assay; remark: listed apart in the source
[4] = molecular target: T2, recombinant human TLR3 extracellular domain (R&D Systems) (human, UniProt O15455 27-711); assay: SPR (Biacore T100), rhTLR3 immobilised on CM5 chip, bivalent affinity, pH 5.6
T2 construct: also called rhTLR3; human rec TLR3; not shown: His tag (R&D #1487-TR)

[5] = molecular target: T2, recombinant human TLR3 extracellular …; assay: SPR (Biacore T100), rhTLR3 immobilised on CM5 chip, bivalent affinity, pH 7.2
TLR3 [6] = molecular target: T3, TLR3 (Homo sapiens, UniProt O15455); assay: SPR competition assay with polyAU in acidic buffer; format: binding; set-up: purchased R&D Systems; conditions: pH 5.6
Experimental: (a) General Biacore T100 methods. SPR measurements were performed on a Biacore T100 apparatus (Biacore GE Healthcare) at 25° C. In all Biacore experiments HBS-EP+ buffer (Biacore GE Healthcare) or 10 mM sodium acetate pH 5.6, 150 mM NaCl, 0.05% P20 served as running buffer and sensorgrams were analyzed with Biaevaluation 4.1 and Biacore T100 Evaluation software. Recombinant human and mouse TLR3 were purchased from R&D Systems. (b) Protein immobilization. Recombinant TLR3 protein was immobilized covalently to carboxyl groups in the dextran layer of a Biacore Series 5 Sensor Chip CM5 (chip). The chip surface was activated with EDC/NHS (0.2M N-ethyl-N′-(3-dimethylaminopropyl) carbodiimidehydrochloride, 0.05M N-hydroxysuccinimide (Biacore GE Healthcare)). […] Deactivation of the remaining activated groups was performed using 100 mM ethanolamine pH 8 (Biacore GE Healthcare). (c) Antibody binding analysis was run using HBS-EP+ (neutral pH). Antibodies at a concentration of 10 μg/ml were injected for 2 min at a constant flow rate of 10 μl/min over the immobilized proteins and allowed to dissociate for 3 min before regeneration by a ten second injection of 10 mM NaOH, 500 mM NaCl regeneration buffer. Blank correction was performed on line by co-injecting the soluble antibodies onto the reference dextran flow cell. (d) Competition assay in acidic buffer (pH 5.6). Flow rate was set to 10 μl/min, the first antibody at a concentration of 50 μg/ml (or polyAU at 100 μg/ml) was injected for 2 min, 3 times successively in order to saturate the rhTLR3 surface. The second antibody (or polyAU at 100 μg/ml when the polyAU was added after first antibody) was then injected for 2 min also at 50 μg/ml and allowed to dissociate for 3 min before regeneration by a 15 second injection of 10 mM NaOH, 500 mM NaCl regeneration buffer. Blank correction was also performed on line and the curve using the saturating antibody (or neucleic acid) followed by an injection of buffer subtracted to remove the signal due to the dissociation of the first complex. The resulting signal was compared to that obtained by the injection of the second antibody directly onto the rhTLR3 surface.
Competition assays were conducted according to the methods described for SPR, item d) at pH 5.6.
Buffer (followed by polyAU) is represented in the lower line, while 31C3 followed by polyAU is in the upper line.

TLR3 [7] = molecular target: T3, TLR3; assay: 293T-TLR3-ISRE luciferase reporter gene assay; format: cell-based; set-up: host or cells: 293T (ATCC #CRL-1573), stably carrying pISRE-luc; conditions: dsRNA TLR3 agonist
Description: A reporter gene assay using as promoter ISRE (IFN-stimulated response element) and as reporter gene and protein luciferase was set up. A 293T cell line (ATCC, #CRL-1573) was stably transfected with pISRE-luc plasmid (#219089—Stratagene), further selected by cloning as inducing optimal response to IFN-alpha stimulation and referred to as control 293T-ISRE. This cell line was further stably transfected with pUNO-humanTLR3 plasmid (#puno-htlr3—InVivogen) or pUNO-mouseTLR3 plasmid (#puno-mtlr3—InVivogen) and referred to as 293T-TLR3-ISRE and 293T-mTLR3-ISRE respectively. On day 0, cells are seeded at 4×10^5 cells/mL in complete culture medium in 96-well culture plate (100 μl/well). Cells are first incubated at 37° C. for 20 hours, then 50 μL of medium are discarded and cells are activated with 100 μL/well final of increasing amounts of polyAU together with various concentrations of anti-TLR3 antibodies. Cells incubated with fresh medium will be used as background luciferase activity. Cells are incubated at 37° C. for 6 hours. 100 μL of freshly thawed Steady Glo (Promega) are added to each well, plates were incubated 10 min at RT in the dark and the light emitted in each well is quantified as Count Per Second (CPS) on a gamma-counter (TopCount) apparatus.
Antibodies were tested for inhibition of TLR3 signaling in a luciferase based reporter gene activity (293T-TLR3-ISRE). […] Briefly, dsRNA TLR3 agonists were used to induce TLR3 signaling in the reporter assay in the presence of anti-TLR3 antibodies, and TLR3 signaling was assessed.
In a further set of experiments, 293-huTLR3 cells were incubated with different concentrations of the anti-TLR3 mAbs for 1 to 2 hours (see FIG. 1A; mAb concentration is represented in axis in μg/ml on a logarithmic scale) followed by the addition to the medium of the TLR3 agonist polyAU at a concentration of 300 μg/ml. Luciferase expression was measured after 6 h. […]
Similarly the kinetics of inhibition of the antibodies was evaluated in 293T-TLR3 luciferase assay. […] Luciferase expression was measured at 6 h post poly(A:U) addition. […]

O=C(Nc1c(Cl)cncc1Cl)c1ccc(OC(F)F)c(OCC2CC2)c1 [Roflumilast, roflumilast]
BAL macrophages and lymphocytes (COPD mouse model): decreases in macrophages | BAL neutrophil infiltration (COPD mouse model): decreased infiltration of neutrophils into the airways

Adalimumab
half-life ([1]; after a standard 40 mg dose): approximately 2 weeks | half-life (range) ([1]; after a standard 40 mg dose): 240 to 480 h

Etanercept
half-life ([1]; after a 25 mg dose): 70 h

B1: antibody 23C8 (antibody, V domains shown)
VH: EVQLQQSGPELVKPGASVKISCKASGYSFTGYFMHWVKQSHVKSLEWIGRINPYNGATSYNQNFKDKASLTVDKSSSTSYMELHSLTSEDSAVYYCVRDDGGNYPFDYWGQGTTLTVS
VL: DIQMTQSPASLSASVGETVTITCRASENIYSYLAWYQQKQGKSPQLLVYYAKTLAEGVPSRFSGSGTGTQFSLKINSLQPEDFGSYYCQHHYGTPYTFGGGTKLEIK
notes: also called 23C8.4
IC50, luciferase reporter inhibition test with 100 µg/ml of polyAU [2]: < 5 mg/L | IC50 (µg/ml), inhibition of polyAU (300 µg/ml)-induced luciferase expression in 293-huTLR3 ISRE reporter cells [3]: 1.83 µg/mL | Kd [4]: 0.0103 nM | Kd [5]: 0.138 nM

B2: antibody 28F11 (antibody, V domains shown)
VH: EVQLQQSGPELVKPGASVKISCKASGYSFTGYYIHWVKQSHVKSLEWIGRINPYYGATSYNQNFKDKANLTVDKSSSTAYMELHSLTSDDSAVYYCARSTKLGYLDYWGQGTTLTVS
VL: DIQMTQSPASLSASVGETVTITCRASENIYSNLAWYQQKQGKSPQLLIYNAKTLAEGVPSRFSGSGSGTQYFLKINSLQPEDFGSYYCQHHYGTPFTFGGGTKLEIK
IC50 (µg/ml), inhibition of polyAU (300 µg/ml)-induced luciferase expression in 293-huTLR3 ISRE reporter cells [3]: 5.56 µg/mL | Kd [4]: 0.335 nM | Kd [5]: 0.65 nM

B3: antibody 34A3 (antibody, V domains shown)
VH: EIQLQQSGPELVKPGASVKVSCKASGYVFTTYSIYWVKQSHGKSLEWIGYIDPYNGDTSYNQKFKGKATLTVDKSSSTAYMHLNSLTSEDSTVYYCAREGNYYGYFDYWGQGTTLTVS
VL: QIVLTQSPALMSASPGEKVTMTCSASSSVSYMFWYQQKPRSSPKPWIYLTSNLASGVPARFSGSGSGTSYSLTISSMEAEDAATYYCQQWTGNPPTFGGGTKLEIK
notes: Mouse hybridoma antibody (Balb/c, immunization series #2); also called 34A3.5; printed 34A4, 32A4 and 34A2 in some places
IC50, luciferase reporter inhibition test with 100 µg/ml of polyAU [2]: < 5 mg/L | Kd [4]: 0.0517 nM | Kd [5]: 0.00301 nM

B4: 23C8: anti-human TLR3 monoclonal antibody, IgG1; VH SEQ ID NO: 26, VL SEQ ID NO: 27 (antibody, listed as Mus musculus, V domains shown)
VH: MGWSWIFLFLLSGTAGVLSEVQLQQSGPELVKPGASVKISCKASGYSFTGYFMHWVKQSHVKSLEWIGRINPYNGATSYNQNFKDKASLTVDKSSSTSYMELHSLTSEDSAVYYCVRDDGGNYPFDYWGQGTTLTVS
VL: MSVPTQVLGLLLLWLTGARCDIQMTQSPASLSASVGETVTITCRASENIYSYLAWYQQKQGKSPQLLVYYAKTLAEGVPSRFSGSGTGTQFSLKINSLQPEDFGSYYCQHHYGTPYTFGGGTKLEIK
modifications: SIGNAL (1)..(19); SIGNAL (1)..(20)
antibody binding to TLR3 chip previously incubated with polyAU (TLR3 [6]): able to bind TLR3 even in the presence of polyAU | inhibition of TLR3 signaling (TLR3 [7]): strongly inhibited TLR3 signaling in a dose dependent fashion

B5: 28F11: anti-human TLR3 monoclonal antibody, IgG1; VH SEQ ID NO: 18, VL SEQ ID NO: 19 (antibody, listed as Mus musculus, V domains shown)
VH: MGWSWIFLFLLSGTAGVLSEVQLQQSGPELVKPGASVKISCKASGYSFTGYYIHWVKQSHVKSLEWIGRINPYYGATSYNQNFKDKANLTVDKSSSTAYMELHSLTSDDSAVYYCARSTKLGYLDYWGQGTTLTVS
VL: MSVPTQVLGLLLLWLTGARCDIQMTQSPASLSASVGETVTITCRASENIYSNLAWYQQKQGKSPQLLIYNAKTLAEGVPSRFSGSGSGTQYFLKINSLQPEDFGSYYCQHHYGTPFTFGGGTKLEIK
modifications: SIGNAL (1)..(19); SIGNAL (1)..(20)
antibody binding to TLR3 chip previously incubated with polyAU (TLR3 [6]): able to bind TLR3 even in the presence of polyAU | inhibition of TLR3 signaling (TLR3 [7]): strongly inhibited TLR3 signaling in a dose dependent fashion
